Among the data in article PMC6017093 are binding signal (% positive cells) and Kd values, retold here.

A word on the Kd: it is the free concentration of one partner at which half of the binding sites on the other are occupied at equilibrium, for simple one-to-one binding.

Data set [1] addresses T1, CD20 on Pre-B ALL bone marrow cells (human) (UniProt P11836).
T1 sequence: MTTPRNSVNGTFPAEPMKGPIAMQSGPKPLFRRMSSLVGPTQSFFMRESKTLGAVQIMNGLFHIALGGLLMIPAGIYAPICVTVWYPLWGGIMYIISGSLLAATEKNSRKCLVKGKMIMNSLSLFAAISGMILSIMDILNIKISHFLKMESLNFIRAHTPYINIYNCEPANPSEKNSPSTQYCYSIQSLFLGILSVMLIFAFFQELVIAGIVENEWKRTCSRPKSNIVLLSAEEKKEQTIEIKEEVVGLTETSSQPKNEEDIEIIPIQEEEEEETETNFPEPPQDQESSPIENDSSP
Put plainly: flow cytometry (cell binding). The following applies: T-ALL (CD20-low) control 1.5%, DPBS with 4.5 g/L glucose, 5 mM MgCl2, 0.1 mg/mL yeast tRNA, 1 g/L BSA (10% FBS in flow assay), on ice 30 min, aptamer heated 95 C 5 min and snap-cooled, pH …. A general note: A flow cytometer gives signals particle by particle.

Data set [2] concerns the target T2, CD20 (B-lymphocyte antigen), expressed on HEK293T cells (human) (UniProt P11836).
T2 sequence: T1 sequence
Put plainly: flow cytometry (cell binding). The following applies: no shift on untransfected HEK293T, DPBS with 4.5 g/L glucose, 5 mM MgCl2, 0.1 mg/mL yeast tRNA, 1 g/L BSA (10% FBS in flow assay), on ice 30 min, aptamer heated 95 C 5 min and snap-cooled, pH ….

In turn, “ATACCAGCTTATTCAATTGGAATAAGGGGGTATTACTGTCTGGTAAACAAACGCTATGCGAGGGGATTCAAGATAGTAAGTGCAATCT [AP-1]” yielded a binding signal (% positive cells) in data set [1] of 71.4. Further, the Kd in data set [2] was found to be 96.9 nM.
